Reference: the DeepSol protein solubility set

Test: soluble on expression in E. coli; label from the status in PepcDB or PDB records

Sequence	soluble on expression in E. coli
MQCNDVQATEPDIKVSLTRVGVTNLKKLVKLKRKNKRDIVLLPTFEVFVDLPSSQKGIHMSRSPEVIEEVVENILLEKEIYGVEDLSVEIVMKLFEKHEYATRAEVMLYSDYMMEEKSPVTKKDSQEIGKIIARAYGVKDSNGKIDVKKMVGAEVVGITACPCAQNMLKENAVVSLTEKGFSSEDIEKILDSVTIATHNQRGIGTVMIEVPNGYTVGISKIIKIIKDSMSGEVYELLKRSDEAFVVEAAHKNPKFVEDCAREMIKRVVDVFDYLPEDTQVLVRQVNKESIHRHDAFAERNSTIRELRDELKTLTN	not soluble
MSSRYSERNGLSETEKMTLPKVRKRKAQLVDEIEALKNEVREVDEELDQVYYTHPKSKEYHKIVVNGRKKFNQDPWKALDWLASRNVVAKDPQALALWMKAGEGLSKSAIGEILGDNRPFALETLDRFTKEHKLHDVPIVPALRQYLFSFRLPGESQKINRILEKFAEVYANQNPSYGNADQAHTVAYSCIMVNTLLHNPNVKDKPSLEKYIEMNEQLLEKGAITIEQLTEVYESVSVTQFKIPDEVSTSGKGTVNDILLHAEREGWLFKQSSNPLFSGALSWKKRWFVLSENCLYYFDQMTDKEPKGIITLANVGIRKVEAPSRPFMFEIFSLSDGQIKACKTEQDGRLVEGRHSIYKICAVNDEDMRSWINAISRMMAPQQHLLARPKSTH	soluble
MAHHHHHHMAASLSSSPVRHPIVDNAAVPAASHRIPPPLNGFAFLEHRRSALSHDTFIARDVRQQQHPEQQDNDPAKVIIRVYALEYLRRDEECRFALERECLTARLVVHPHLLPLGAPFASKTDLFVVEKYCAGGDLYELMVSLAKEDPIASEMGAAKGEAPPRSSTGLPTNTVKRFMRELLSAVQYLHRTCGLVHRNIKLETLFIDEEQHLRLGGFGLCAVLPPPSVVTGDREGALDAPDAPEDTASSSHEPLRLCCGSKHYAAPELVQGHPYQGEGVDAWACGVVLFALLTSCFPFDSDDGDEALFRLLCGDVEAHLAQHPAMAAIEDPQACDLVRNLLRPNPNARYTVSEALEHPYLWVA	not soluble
MEDEVFVFTPKGDLFKLAKGATVLDFAFHIHSKLGCKCIGAKVNGKNVQLKQKLNSGDQVEIMTSNTQTPKQDWLEHHHHHH	not soluble
MSLTSHLLKAEIHCHLEGAAPPALVVKQAEKYGIDTSGFLRDGQYVWSDFAEFIQCYDAVAQVFKSDEDYAVLTETYLTELAEANTIYSELIISPDHGDRIGLGADAYLAGVAEGIRIAKEKTGIETRIIVTGERHFGPERVIAAAEYAARIRHPLVTGFNMAGEERMGRVADYARAFDIARDAGLGLTIHAGEVCGPESVADALDLVKPSRIGHGVRAIEDAALISRLVETGTVLEVCPGSNIALSVYPDFASHPLKALSDAGVRVCISSDDPPFFFTSLAREYALAADAFGFNDAEINRMTRTALECAFVDEATRERLLARLGDAEGHHHHHH	soluble
MDALIAQLQRQFRDYTISLYQQGFLDDQFTELKKLQDDGSPDFVSEVLSLFFEDCVKLISNMARALDTTGTVDFSQVGASVHQLKGSSSSVGAKRVKTLCVSFKECCEAKNYEGCVRCLQQVDIEYKALKTKLQDMFNLEKQIIQAGGIVPQVDIN	soluble
GPLGSETITVPTPIKQIFSDDAFAETIKDNLKKKSVTDAVTQNELNSIDQIIANNSDIKSVQGIQYLPNVTKLFLNGNKLTDIKPLANLKNLGWLFLDENKVKDLSSLKDLKKLKSLSLEHNGISDINGLVHLPQLESLYLGNNKITDITVLSRLTKLDTLSLEDNQISDIVPLAGLTKLQNLYLSKNHISDLRALAGLKNLDVLELFSQECLNKPINHQSNLVVPNTVKNTDGSLVTPEIISDDGDYEKPNVKWHLPEFTNEVSFIFYQPVTIGKAKARFHGRVTQPLKE	soluble
IDRKVLSQLRNRFLSLNDGRYARALEGMSTRQQSVLTLLPLFFHVNHPLLPGYVSGSTPAGVSHYEPDTLALAEAQRLTRSFSYKARHGNPPQPIHGLFLMGSLGTLAQADQSDMDVWVCHDSELDLEAIAELRKKCQALEAWAATMGAEAHFFLIDPQRFKSGERDSQLSSDDCGTTQHYLLLDEFYRTAIWLAGRTPMWWMVPVYEEQNYEDYTYTLLSKRFIRASEVLDLGPMSHIPATEFIGAGLWQLFKGIGSPYKSVLKLLLIEVYSSEHPRVQCLSLRFKQAVFANQLDLDELDPYVVVYRRIEEHLQARNEPERLELVRRSLYLKVNKKLTGSTRQRNIGWQRLLLARLTSEWGWDERQLTLLDSRSQWKVRQVASERRALVNELNYSYRFQTRFARAQSTADTLDARDLTILGRRLYAAYERKAGKVEFINPGIAPDLAEDTLTLVHSPDKREPGKHQWALYNGNLGIHEWANFSPIKRSRELLELLAWCHRNNVIDTTTRVALHPGTSDLSEFELFNLLGALQQSIELPLPEVSDDELLKPSAPSEILLLINVGVDPLRHHRDLNILMTTERTDSLSYAGVRENLVLTLDQITLNTWNETLVSRYDGPHALLDCMSELLGSLPTSGKQPQIRVRCFCHNRASAIAQRVEELISTAQLLLARQLNHRYLIQVQQQYHVLEIKPGQVGHVVVNSLPGLFKYLGEELPRYSPLHLDPQALDGHDLALILPLGQPECIQVFYRINEPDADLYVLDEHNSLWHQRVPYHDEQSLLTPLQRFFHSLVYRRGASLPLDD	not soluble
MKVSILDYGVIDKEKTPQEALLETRCLAQVADKLGFHRFWVAEHHNIYAFAISSPELLMMHLADHTKQIRIGSGGIMPLHYSSFKIAEWIMTLEALHPNRIDLGIGNSLGTTLVQRALSSIHCKDSYSQVVTELYQYLNPDHLSPLPIFVNPRGNTYPQIWTLSNSLETAELAGQLGLGYTFGIFPYIPKDPITEAKRVSAHYRKAFRPSKLLKIPKLILAVFIVLSDTDEKAEALAKPLDIWMLGQQDFNEFKTYPDVEEARNYHLTEKQREAIAANRSRMVIGSPHTVKKQLDRLIEACQADELLAIPLVPEFANRQRTLELLADLYVTI	not soluble
MESGHRFDAQTLHSFIQAVFRQMGSEEQEAKLVADHLIAANLAGHDSHGIGMIPSYVRSWSQGHLQINHHAKTVKEAGAAVTLDGDRAFGQVAAHEAMALGIEKAHQHGIAAVALHNSHHIGRIGYWAEQCAAAGFVSIHFVSVVGIPMVAPFHGRDSRFGTNPFCVVFPRKDNFPLLLDYATSAIAFGKTRVAWHKGVPVPPGCLIDVNGVPTTNPAVMQESPLGSLLTFAEHKGYALAAMCEILGGALSGGKTTHQETLQTSPDAILNCMTTIIINPELFGAPDCNAQTEAFAEWVKASPHDDDKPILLPGEWEVNTRRERQKQGIPLDAGSWQAICDAARQIGMPEETLQAFCQQLAS	soluble
MDEFGSLLGDSPRSSVNNWEKGVSIPKRDKLEKIAILGNMLPDQILYGRADEYLYDLIDSSFNVKFSDNILYEIFESVPPEKRSYDDLMWLAVAKYFIDNGTYGKVVGKFNYISMLGIPNLYTGSYQNEFIEQREDYKQQEVKYYVYADPEKNILHIMPFVPNEKNIELLYEFPELLEQQADHEVFTANFEQIGLTLKGSTIVYYGIDKQKLEAKTQAYKYDEAVDLYRIAQLPETLSMFDDEIQKQISFLKSK	not soluble
MSLGRFVRHALITAGTKGLGKQVTEKLLAKGYSVTVTYHSDTTAMETMKETYKDVEERLQFVQADVTKKEDLHKIVEEAMSHFGKIDFLINNAGPYVFERKKLVDYEEDEWNEMIQGNLTAVFHLLKLVVPVMRKQNFGRIINYGFQGADSAPGWIYRSAFAAAKVGLVSLTKTVAYEEAEYGITANMVCPGDIIGEMKEATIQEARQLKEHNTPIGRSGTGEDIARTISFLCEDDSDMITGTIIEVTGAVDVIHREGHHHHHH	soluble
MGSDKIHHHHHHMTEGLTIGIDVGGTNLRFGVFRGNELLDSTRSEVDLREKCRQAPDPEGAAALVTTLLTEGIADLRRHHPNIARVGIAFPGFIDDDGVLLQSPNIPQLIQFDLQTAVGAACQLPVLVENDANAAGYGEFWEERQEHPELQNLLYVGLGTGVGGGWIHQGRPWRGDHGSAMEIGHIIVVPGGRRCGCGNQGCLEQYASARGVQSTYVELTGTAPDAMVIAQMAGDAHSEAASAFRMAGGYLGQVLAHVVKVTDVAVVRIGGGMSAAWDRFAPAMLQRLDADMIPALRGNVEVKRGNDDDLAGMRGAALLADQEFLHS	not soluble
MIFLSFKKSFKNITIEGKFTFEKGFNVILGPSGAGKSTVIKVMCGIEKPDEGFMKCCDEVFFDTKKGVFLPPQKRRLGVVFQSHNLFPHMTVRENIEFALKKAKEPQFTVEELLEKFNLKGHENKYPGELSGGQRQRVAVIRAIVFNPRAVLMDEPFSSLDFKTKLSIMEFIKSVHIEKPVIIVTHDLFEALYLGQKFFLMDNGKKVKEGGKEVLKEYVDLEKIKKFLS	soluble
MKRHYLFSICILTLLLLAACGSSATEDHELEVPEDQETIEIDGEEEDSSQPVFSDEEALVVDDLLEEESRGEEATEHSEPIEEDTSTPSEASGSENVEETEQQPADENNQAFALNVKKFKLELEWQDGDELEMEYEQKKNEKGKAKVEWDGAHKEKMSGKQAVEWMEDFLSQLDLSEGTNSDRLKSQVYAILDIDPSEVEELDLEIEFFDMAGDPLEHHHHHH	not soluble
MQSQWCARQQDMIAVYGALAEQCDYALHLGLTEAGMGSKGIVASTAALAVLLFKGIGDTIRVSLTPEPGGDRAREVIVAQEILQTMGLRAFVPLVAACPGCGRTTSTYFQELAESIQIYVREQMVIWREQYEGVENMSLAVMGCVVNGPGESKHADIGISLPGSGETPVAPVFVDGQKTVTLKGDNIAGEFRMIVDEYVRTKYRKKAANALEHHHHHH	not soluble
FLYSNTSYRTLYLAAILYKAKADIRIVHDHLNHTSLADLKFKKYVYNHFKTQGQVIYFICTKKIQKRLRMTADQCARVNLLSNIAD	soluble
MSNTESTPVFDVCLSEKSFPHAQDKAILVHVFLSQTKDIDNLTEFQTLAESAGVELLSTLTTSRNAPHIKYFVGQGKAEEIAQAVENLGATVVLINHQLSPAQTRNLQNLCGCRIVDRSGLILDIFAQRARSHEGKLQVELAQLRHLSTRLVRRLGNQDQQKGGSVGLRGPGETQLETDRRLIKVRIQQLQNQLDKVNKKRHQNRKTRQKADIPTVSLVGYTNAGKSTLFNAITQAGVYAADQLFATLDPTLRRMQIQDVGTTILADTVGFIRFLPHDLVSAFKSTLQETTEANLLLHVVDIADERKNDNITAVNQVLDEIGALTLPSLLIYNKVDKITDITPHIERNQEGKPIAVYLSAHTNQGIDLLYQAIRECLRNELVCQKILLPTTAGQIYAQIRNQNCIKQEHFNQFGDRLIDIEVNAVQWQKWLKQYPALIEYVAFAKWENELEHHHHHH	not soluble
MGSDKIHHHHHHMAYPPTGGDRKTNLTTILRKSSKNLMSKKSDSQFQNLFTSAKSSNWDERLGQIAYRFNREYQRETFELPTEVQAMPIFREWIGGSFSGRIASPFWEIAQPQKNQHCLDIGCGISFLIYPWRDWQAFFHGQEISNVARDTLNSRGPQLNSKLFKGVELGAAHQLNYSPEQFDLAIATGFSCYFPLEYWNAVLAEVKRVLKPGGHFVFDILNPEQPLAEDWAVLETYLGAEVFLEPVAGWEKAIKAAGAKIVTQKSGELFQMYKVRF	not soluble
LLGLGVGPGDPELITLKALRLLRAAPVVGYFVAKGKKGNAFGIIEAHLDQAQVRLPLVYPVTTEKLEPPLCYETIISDFYDTAAEQLAAHLDAGRDVAVICEGDPFFYGSYMYLHDRLATRYESEVVPGVCSMLGGAAVLGAPLVYRNQSLSVLSGVLPEEELRRRLADADAAVVMKLGRNFDKVRRVLVELGLERRALYVERATMANQRIVPLERVEPMASPYFSLIVVPGDKWQGGAGGE	not soluble
